Data as given in patent US20220324954A1 (SHANGHAI NOVAMAB BIOPHARMACEUTICALS, published 2022).

T1: human VEGFB (human, UniProt P49765-2 22-188, limits assumed, biotinylated (sites not given))
T1 construct: also called Biotin-HVEGFB
T1 sequence (looked up): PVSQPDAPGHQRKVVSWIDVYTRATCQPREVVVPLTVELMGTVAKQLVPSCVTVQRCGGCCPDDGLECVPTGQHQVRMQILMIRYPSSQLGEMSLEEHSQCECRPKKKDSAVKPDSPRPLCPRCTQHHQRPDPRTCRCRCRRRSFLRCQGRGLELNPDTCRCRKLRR

T2: human VEGFC (human, UniProt P49767 112-227, limits assumed, biotinylated (sites not given))
T2 construct: also called Biotin-HVEGFC
T2 sequence (looked up): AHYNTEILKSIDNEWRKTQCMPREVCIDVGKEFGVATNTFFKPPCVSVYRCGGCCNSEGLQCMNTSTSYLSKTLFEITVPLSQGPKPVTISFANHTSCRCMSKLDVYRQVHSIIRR

T3: human VEGFD (human, UniProt O43915 89-205, limits assumed, biotinylated (sites not given))
T3 construct: also called Biotin-HVEGFD
T3 sequence (looked up): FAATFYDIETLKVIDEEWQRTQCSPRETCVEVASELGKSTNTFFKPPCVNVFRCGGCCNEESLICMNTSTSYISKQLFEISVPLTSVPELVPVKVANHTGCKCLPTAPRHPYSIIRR


What was measured:
human VEGFA [1] = molecular target: T4, human VEGFA (human, UniProt P15692-4 27-191, limits assumed, biotinylated (sites not given) in the ELISA assays); test: cell-based or functional assay
T4 sequence (P15692 other isoform, or with tags, fused parts or gaps limits assumed): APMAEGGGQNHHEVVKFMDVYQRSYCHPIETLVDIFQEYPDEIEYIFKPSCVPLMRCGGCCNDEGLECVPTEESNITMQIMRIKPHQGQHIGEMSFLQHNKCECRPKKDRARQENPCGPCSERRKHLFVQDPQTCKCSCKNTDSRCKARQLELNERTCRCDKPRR

human VEGFA [2] = molecular target: T4, human VEGFA; test: blocking ELISA: VEGFR2 coated, biotinylated VEGFA with antibody dilutions (FIG. 1)
Method: (§1) (4) After washing with PBST for 5 times, 100 uL SA-HRP (1:100000 dilution) was added and incubated at 37° C. for 1 hour. (5) After washing with PBST for 5 times, TMB chromochrome solution 100 uL was added, and developed at 37° C. for 10 min, 2M H₂SO₄ (50 uL/well) was added to terminate the reaction, and the absorption value was measured at 450 nm wavelength with a microplate reader.

human VEGFA [3] = molecular target: T4, human VEGFA; test: blocking ELISA: VEGFR2 coated, biotinylated VEGFA with antibody dilutions (FIG. 4)
Method: as §1

human VEGFA [4] = molecular target: T4, human VEGFA; test: blocking ELISA: VEGFR2 coated, biotinylated VEGFA with antibody dilutions (FIG. 5)
Method: as §1

human VEGFB = molecular target: T1, human VEGFB; test: ELISA, antibody coated, biotinylated ligand, SA-HRP
Method: (§2) ELISA was used to verify whether the candidate antibodies could cross-react with VEGF homologous proteins. (1) 1 ug/mL antibody to be measured was added to the ELISA plate and coated overnight at 4° C. […] (4) After washing with PBST for 5 times, 100 uL diluted SA-HRP (1:5000 diluted) was added at 37° C. and incubated for 1 hour; (5) After washing with PBST for 5 times, TMB solution (100 uL) was added and developed at 37° C. for 10 min, add 2M H₂SO₄ (50 uL/well) was added to terminate the reaction, and the absorption value at 450 nm wavelength was measured with a microplate reader.

human VEGFC = molecular target: T2, human VEGFC; test: as above
Method: as §2

human VEGFD = molecular target: T3, human VEGFD; test: as above
Method: as §2

human VEGFA [5] = molecular target: T4, human VEGFA; test: blocking ELISA: VEGFR2 coated, biotinylated VEGFA with antibody dilutions (FIG. 6)
Method: as §1

human VEGFA [6] = molecular target: T4, human VEGFA; test: blocking ELISA: VEGFR1 coated, biotinylated VEGFA with antibody dilutions (FIG. 10)
Method: (1) VEGFR1 protein was coated on an enzyme plate (1 ug/mL, 100 uL/well) and incubated at 4° C. overnight. […] (4) After washing with PBST for 5 times, 100 uL SA-HRP (1:100000 dilution) was added and incubated at 37° C. for 1 hour. (5) After washing with PBST for 5 times, TMB solution (100 uL) was added and developed at 37° C. for 10 min, 2M H₂SO₄ (50 uL/well) was added to terminate the reaction, and the absorption value at 450 nm wavelength was measured with a microplate reader.

human VEGFA [7] = molecular target: T4, human VEGFA; test: blocking ELISA: VEGFR2 coated, biotinylated VEGFA with antibody dilutions (FIG. 5); reference huNb24
Method: as §1

| Binder | inhibitory effect on HUVEC cell proliferation (CCK8, OD450), IC50 (human VEGFA [1]) | IC50 (human VEGFA [2]) | IC50 (human VEGFA [3]) | IC50 (human VEGFA [4]) | inhibitory effect on HUVEC cell proliferation, IC50 (human VEGFA [1]) | binding result (human VEGFB) | binding result (human VEGFC) | binding result (human VEGFD) | IC50 (human VEGFA [5]) | IC50 (human VEGFA [6]) | fold increase of blocking activity against huNb24 (human VEGFA [7]) |
| --- | --- | --- | --- | --- | --- | --- | --- | --- | --- | --- | --- |
| Nb24 (Fc fusion, also called candidate antibody Nb24; antibody before humanization; not shown: Fc) QVQLQESGGGSVQAGGSLRLSCTASGFTFDDPDVGWFRQAPGNECELVSTISKDGSTYYTDSVKGRFTISQDYAKNTVYLQMNSLKPEDTAVYYCAADSNPIAPIRTCLGWYNYWGQGTQVTVSS | 0.0296 µg/mL | 0.0149 µg/mL | 0.045 µg/mL | – | – | – | – | – | – | – | – |
| huNb24 (Fc fusion, also called humanized antibody huNb24; antibody after humanization; not shown: Fc from the pFUSE vector) EVQLQESGGGLVQPGGSLRLSCTASGFTFDDPDVGWFRQAPGNECELVSTISKDGSTYYTDSVKGRFTISRDYAKNTVYLQMNSLRAEDTAVYYCAADSNPIAPIRTCLGWYNYWGQGTLVTVSS | – | – | 0.038 µg/mL | 0.044 µg/mL | – | – | – | – | – | – | – |
| hu bi-Nb24(Y) (VHH, Bivalent tandem VHH, one chain, expressed in Pichia pastoris, no Fc; also called humanized bivalent antibody expressed by the yeast; huNb24 bivalent) EVQLQESGGGLVQPGGSLRLSCTASGFTFDDPDVGWFRQAPGNECELVSTISKDGSTYYTDSVKGRFTISRDYAKNTVYLQMNSLRAEDTAVYYCAADSNPIAPIRTCLGWYNYWGQGTLVTVSSGGGGSGGGSEVQLQESGGGLVQPGGSLRLSCTASGFTFDDPDVGWFRQAPGNECELVSTISKDGSTYYTDSVKGRFTISRDYAKNTVYLQMNSLRAEDTAVYYCAADSNPIAPIRTCLGWYNYWGQGTLVTVSS | – | – | – | 0.013 µg/mL | 0.0536 µg/mL | no binding (tested: 1 ug/mL) | no binding (tested: 1 ug/mL) | no binding (tested: 1 ug/mL) | 0.022 µg/mL | 0.168 µg/mL | > 3 times |
